The text below walks through data of patent US20070196354A1, “Method of treating diabetes by inhibiting degradation of at least one of crebl1, atf6, and hnf-4 alpha by htra” (priority 2003, published 2007).

The target in data set [1] is T1, biotinylated CREBL1 (N-terminal tagged-CREBL1 with biotinylated lysine residue within the protein).
T1 chain: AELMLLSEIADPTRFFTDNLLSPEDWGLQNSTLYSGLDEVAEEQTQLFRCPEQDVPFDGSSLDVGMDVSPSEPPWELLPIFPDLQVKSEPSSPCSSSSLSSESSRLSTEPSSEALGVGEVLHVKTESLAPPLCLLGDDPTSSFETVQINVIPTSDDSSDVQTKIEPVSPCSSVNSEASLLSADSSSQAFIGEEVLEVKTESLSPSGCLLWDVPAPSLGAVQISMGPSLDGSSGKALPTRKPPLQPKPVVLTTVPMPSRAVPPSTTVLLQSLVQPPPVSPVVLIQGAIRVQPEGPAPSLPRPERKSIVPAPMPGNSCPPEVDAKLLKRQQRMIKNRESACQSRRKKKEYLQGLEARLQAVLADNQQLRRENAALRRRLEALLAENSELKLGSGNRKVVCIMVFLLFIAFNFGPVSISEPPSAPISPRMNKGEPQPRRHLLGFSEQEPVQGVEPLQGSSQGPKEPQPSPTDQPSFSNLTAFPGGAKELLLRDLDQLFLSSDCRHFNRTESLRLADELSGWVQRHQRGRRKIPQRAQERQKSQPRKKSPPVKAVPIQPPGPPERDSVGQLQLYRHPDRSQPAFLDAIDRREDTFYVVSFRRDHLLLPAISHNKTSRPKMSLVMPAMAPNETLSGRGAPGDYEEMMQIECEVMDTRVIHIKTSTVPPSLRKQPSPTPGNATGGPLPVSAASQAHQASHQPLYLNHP

In data set [2] the target is T2, HNF-4α (SEQ ID NO: 35) with N-terminal tag, as used in Example 6.
T2 chain: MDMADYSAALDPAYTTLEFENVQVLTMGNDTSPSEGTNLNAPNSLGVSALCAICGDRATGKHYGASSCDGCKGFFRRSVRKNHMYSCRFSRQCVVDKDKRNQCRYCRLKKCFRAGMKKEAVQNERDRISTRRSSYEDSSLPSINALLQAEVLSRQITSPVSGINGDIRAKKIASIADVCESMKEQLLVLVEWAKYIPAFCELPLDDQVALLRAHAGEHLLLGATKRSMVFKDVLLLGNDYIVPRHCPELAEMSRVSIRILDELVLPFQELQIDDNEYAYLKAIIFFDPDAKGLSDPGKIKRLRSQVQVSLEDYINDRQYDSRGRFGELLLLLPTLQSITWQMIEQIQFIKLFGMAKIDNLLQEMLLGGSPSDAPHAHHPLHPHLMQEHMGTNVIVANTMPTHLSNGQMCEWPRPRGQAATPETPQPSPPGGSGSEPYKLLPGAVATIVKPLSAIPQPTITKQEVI

Data set [3] has as its target T3, CREBL1 (SEQ ID NO: 16) with c-Myc-tag ligated at the N-terminal.
T3 chain: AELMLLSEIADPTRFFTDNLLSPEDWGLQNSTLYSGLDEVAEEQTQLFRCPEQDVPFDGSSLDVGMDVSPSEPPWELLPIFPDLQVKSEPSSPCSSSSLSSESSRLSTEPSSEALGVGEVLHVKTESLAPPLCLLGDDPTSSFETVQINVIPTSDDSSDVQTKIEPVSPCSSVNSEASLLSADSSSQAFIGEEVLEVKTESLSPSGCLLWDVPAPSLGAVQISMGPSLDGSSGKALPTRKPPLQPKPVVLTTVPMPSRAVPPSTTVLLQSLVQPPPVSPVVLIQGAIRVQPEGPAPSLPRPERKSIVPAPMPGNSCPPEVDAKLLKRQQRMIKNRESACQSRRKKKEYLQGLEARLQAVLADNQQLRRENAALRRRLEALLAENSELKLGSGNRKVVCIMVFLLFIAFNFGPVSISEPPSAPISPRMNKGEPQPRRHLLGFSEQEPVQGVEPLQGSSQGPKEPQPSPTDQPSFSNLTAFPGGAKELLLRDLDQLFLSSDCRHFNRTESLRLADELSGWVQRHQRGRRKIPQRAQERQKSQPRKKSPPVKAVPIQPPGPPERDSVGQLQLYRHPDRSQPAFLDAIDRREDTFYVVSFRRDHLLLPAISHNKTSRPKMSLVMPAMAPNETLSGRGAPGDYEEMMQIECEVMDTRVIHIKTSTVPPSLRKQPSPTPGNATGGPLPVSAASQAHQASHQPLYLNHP

In data set [4] the target is T4, ATF6 (SEQ ID NO: 18) with c-Myc-tag ligated at the N-terminal.
T4 chain: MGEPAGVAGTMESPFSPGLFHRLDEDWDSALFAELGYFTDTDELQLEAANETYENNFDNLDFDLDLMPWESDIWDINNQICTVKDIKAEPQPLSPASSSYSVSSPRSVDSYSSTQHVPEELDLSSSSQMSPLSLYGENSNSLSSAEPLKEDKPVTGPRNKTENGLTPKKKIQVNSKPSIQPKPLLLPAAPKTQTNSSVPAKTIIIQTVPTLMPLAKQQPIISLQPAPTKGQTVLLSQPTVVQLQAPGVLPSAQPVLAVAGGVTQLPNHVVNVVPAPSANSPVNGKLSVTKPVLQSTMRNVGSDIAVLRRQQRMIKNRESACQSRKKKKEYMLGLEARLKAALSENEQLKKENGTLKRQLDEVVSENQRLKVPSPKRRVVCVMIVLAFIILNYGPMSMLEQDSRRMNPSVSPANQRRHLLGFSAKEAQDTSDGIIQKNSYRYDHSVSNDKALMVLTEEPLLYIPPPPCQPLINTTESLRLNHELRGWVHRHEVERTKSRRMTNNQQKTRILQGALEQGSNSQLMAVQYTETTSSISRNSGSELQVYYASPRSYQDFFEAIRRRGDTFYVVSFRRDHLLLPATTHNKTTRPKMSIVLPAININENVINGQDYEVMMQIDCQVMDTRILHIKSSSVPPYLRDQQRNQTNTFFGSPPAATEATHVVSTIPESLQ

B1: mature HtrA2 (SEQ ID NO: 4) with histidine (His)-tag ligated at the C-terminal (protein)
chain: MAVPSPPPASPRSQYNFIADVVEKTAPAVVYIEILDRHPFLGREVPISNGSGFVVAADGLIVTNAHVVADRRRVRVRLLSGDTYEAVVTAVDPVADIATLRIQTKEPLPTLPLGRSADVRQGEFVVAMGSPFALQNTITSGIVSSAQRPARDLGLPQTNVEYIQTDAAIDFGNSGGPLVNLDGEVIGVNTMKVTAGISFAIPSDRLREFLHRGEKKNSSSGISGSQRRYIGVMMLTLSPSILAELQLREPSFPDVQHGVLIHKVILGSPAHRAGLRPGDVILAIGEQMVQNAEDVYEAVRTQSQLAVQIRRGRETLTLYVTPEVTE
With B1, the “in vitro protease assay; degradation pattern of biotinylated CREBL1 by western blotting (streptavidin HRP)” value in data set [1] was “remarkable reduction of the band of biotinylated CREBL1 was observed, and further, the band that was supposed to be a degradation product of CREBL1 was detected around 50 kDa”. The “in vitro protease assay; western blotting of HNF-4α band” value in data set [2] is reported as “the band of HNF-4α was reduced significantly after the reaction of active HtrA2 with HNF-4α for overnight (O/N)”. Also, the “in vitro protease assay; western blotting of CREBL1 band” value in data set [3] is reported as “the band of CREBL1 was reduced significantly after the reaction of active HtrA2 with CREBL1 for overnight (O/N)”. Besides, the “in vitro protease assay; western blotting of ATF6 band” value in data set [4] is on record as “the band of ATF6 was reduced significantly after the reaction of active HtrA2 with ATF6 for four hours (4 h) or overnight (O/N)”.

B2: mature HtrA2 (S306A) (SEQ ID NO: 6) with histidine (His)-tag ligated at the C-terminal (protein)
chain: MAVPSPPPASPRSQYNFIADVVEKTAPAVVYIEILDRHPFLGREVPISNGSGFVVAADGLIVTNAHVVADRRRVRVRLLSGDTYEAVVTAVDPVADIATLRIQTKEPLPTLPLGRSADVRQGEFVVAMGSPFALQNTITSGIVSSAQRPARDLGLPQTNVEYIQTDAAIDFGNAGGPLVNLDGEVIGVNTMKVTAGISFAIPSDRLREFLHRGEKKNSSSGISGSQRRYIGVMMLTLSPSILAELQLREPSFPDVQHGVLIHKVILGSPAHRAGLRPGDVILAIGEQMVQNAEDVYEAVRTQSQLAVQIRRGRETLTLYVTPEVTE
B2: in data set [1], the “in vitro protease assay; degradation pattern of biotinylated CREBL1 by western blotting (streptavidin HRP)” value is “the degradation of CREBL1 by inactive HtrA2 (mature HtrA2 (S306A)) was not observed, and the band around 50 kDa as above was not detected”. Further, the “in vitro protease assay; western blotting of HNF-4α band” value in data set [2] is “the degradation of HNF-4α by inactive HtrA2 (mature HtrA2 (S306A)) was not observed”. Besides, the “in vitro protease assay; western blotting of CREBL1 band” value in data set [3] is “the degradation of CREBL1 and ATF6 by inactive HtrA2 (mature HtrA2 (S306A)) was not observed”. Moreover, in data set [4], the “in vitro protease assay; western blotting of ATF6 band” value is “the degradation of CREBL1 and ATF6 by inactive HtrA2 (mature HtrA2 (S306A)) was not observed”.
